In patent publication US20190185562A1 (Regeneron, published 2019):
Values belong to the binder of their own block, whether it stands above or below them.

Key:
[1] = molecular target: T1, extracellular domain of human LEPR, GPI-anchored on HEK293/hLEPR-GPI cells (human, UniProt P48357 22-839, GPI anchor at the C-terminus ; GPI anchor at the C-terminus, added through the carboxypeptidase M signal peptide. The protein is displayed on the HEK293 cell membrane.); experiment: FACS, 200 nM antibody, HEK293/hLEPR-GPI cells, 1 µM Leptin present
T1 sequence: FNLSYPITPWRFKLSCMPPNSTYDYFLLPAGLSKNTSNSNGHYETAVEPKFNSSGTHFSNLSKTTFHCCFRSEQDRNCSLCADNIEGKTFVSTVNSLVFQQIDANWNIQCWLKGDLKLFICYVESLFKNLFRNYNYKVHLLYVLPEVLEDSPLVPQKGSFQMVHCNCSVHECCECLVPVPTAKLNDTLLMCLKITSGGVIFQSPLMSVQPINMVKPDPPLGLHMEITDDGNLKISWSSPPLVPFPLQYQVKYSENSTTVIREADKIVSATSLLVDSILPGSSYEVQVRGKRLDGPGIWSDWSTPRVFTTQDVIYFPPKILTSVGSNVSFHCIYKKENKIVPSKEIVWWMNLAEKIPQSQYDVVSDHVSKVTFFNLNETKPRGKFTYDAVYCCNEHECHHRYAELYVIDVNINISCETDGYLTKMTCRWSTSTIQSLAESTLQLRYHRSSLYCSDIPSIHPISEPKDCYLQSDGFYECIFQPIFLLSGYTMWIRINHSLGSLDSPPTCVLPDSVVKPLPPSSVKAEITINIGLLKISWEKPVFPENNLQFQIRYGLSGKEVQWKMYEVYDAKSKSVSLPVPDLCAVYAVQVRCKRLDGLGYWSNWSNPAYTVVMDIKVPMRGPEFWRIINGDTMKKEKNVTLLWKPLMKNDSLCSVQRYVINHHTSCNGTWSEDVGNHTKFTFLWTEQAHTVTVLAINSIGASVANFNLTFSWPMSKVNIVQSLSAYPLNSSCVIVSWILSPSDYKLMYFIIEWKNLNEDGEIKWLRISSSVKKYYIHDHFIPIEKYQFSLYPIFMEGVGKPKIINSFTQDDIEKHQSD
Procedure: (§1) For the FACS analysis, 0.5×10^6 cells/well of HEK293 parental cells, HEK293/Stat3-luc/gp130-2X Sort cells, and HEK293/hLEPR-GPI cells, were incubated with 200 nM of the conventional antibodies against either GP130 or LEPR or with LEPR×GP130 bispecific antibodies, along with isotype control antibodies at 4° C. in PBS (without calcium and magnesium) containing 2% FBS.
(§2) Cells were fixed using BD CytoFix™ (Becton Dickinson, #554655) and analyzed on an IQue® (Intellicyt) Flow Cytometer. Unstained and secondary antibody alone controls were also tested for all cell lines. The results were analyzed using ForeCyt® (IntelliCyt) and FlowJo version 10 softwares to determine the geometric means of fluorescence for viable cells.

[2] = molecular target: T2, full length human GP130 (leucine at position 2 changed to valine) on HEK293/Stat3-luc/gp130-2X Sort cells (human, UniProt P40189 23-918); experiment: FACS, 200 nM antibody, HEK293/gp130 2X Sort cells
T2 construct: whole, on cells; also called HEK293/gp130 2X Sort
T2 sequence (looked up): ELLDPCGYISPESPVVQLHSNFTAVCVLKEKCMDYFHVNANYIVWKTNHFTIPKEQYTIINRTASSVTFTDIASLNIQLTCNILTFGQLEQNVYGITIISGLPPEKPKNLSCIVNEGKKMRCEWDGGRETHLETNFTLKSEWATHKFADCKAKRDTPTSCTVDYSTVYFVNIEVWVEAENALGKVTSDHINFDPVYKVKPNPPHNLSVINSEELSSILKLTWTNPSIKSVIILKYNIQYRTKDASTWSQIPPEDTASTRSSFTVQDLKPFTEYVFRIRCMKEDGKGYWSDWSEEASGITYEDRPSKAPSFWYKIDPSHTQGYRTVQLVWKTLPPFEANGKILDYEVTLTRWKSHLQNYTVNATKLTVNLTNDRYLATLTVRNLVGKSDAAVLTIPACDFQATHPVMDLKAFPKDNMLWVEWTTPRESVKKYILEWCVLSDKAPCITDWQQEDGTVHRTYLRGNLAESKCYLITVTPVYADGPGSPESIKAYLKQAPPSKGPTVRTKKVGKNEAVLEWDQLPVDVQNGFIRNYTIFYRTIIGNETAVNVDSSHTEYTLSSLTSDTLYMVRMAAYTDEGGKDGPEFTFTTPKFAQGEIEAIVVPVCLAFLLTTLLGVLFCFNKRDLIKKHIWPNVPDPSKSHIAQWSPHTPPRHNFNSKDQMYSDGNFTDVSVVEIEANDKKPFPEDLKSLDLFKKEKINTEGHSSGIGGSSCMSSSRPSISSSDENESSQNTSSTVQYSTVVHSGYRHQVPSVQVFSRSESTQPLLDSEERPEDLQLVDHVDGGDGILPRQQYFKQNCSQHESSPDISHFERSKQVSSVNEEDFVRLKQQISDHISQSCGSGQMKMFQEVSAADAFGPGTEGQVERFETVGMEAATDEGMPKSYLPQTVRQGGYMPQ
Procedure: as §1, §2

[3] = molecular target: T3, wild-type human GP130 on HEK293.STAT3.Luc.GP130.hLEPR reporter cells (human, UniProt P40189 23-918); experiment: cell-based or functional assay
T3 sequence (looked up): T2 sequence (looked up)

[4] = molecular target: T4, mutant human LEPR (Y1141F) on HEK293.STAT3.Luc.GP130.hLEPR (Y1141F) cells (human, UniProt P48357 22-1165); experiment: cell-based or functional assay
T4 sequence (looked up): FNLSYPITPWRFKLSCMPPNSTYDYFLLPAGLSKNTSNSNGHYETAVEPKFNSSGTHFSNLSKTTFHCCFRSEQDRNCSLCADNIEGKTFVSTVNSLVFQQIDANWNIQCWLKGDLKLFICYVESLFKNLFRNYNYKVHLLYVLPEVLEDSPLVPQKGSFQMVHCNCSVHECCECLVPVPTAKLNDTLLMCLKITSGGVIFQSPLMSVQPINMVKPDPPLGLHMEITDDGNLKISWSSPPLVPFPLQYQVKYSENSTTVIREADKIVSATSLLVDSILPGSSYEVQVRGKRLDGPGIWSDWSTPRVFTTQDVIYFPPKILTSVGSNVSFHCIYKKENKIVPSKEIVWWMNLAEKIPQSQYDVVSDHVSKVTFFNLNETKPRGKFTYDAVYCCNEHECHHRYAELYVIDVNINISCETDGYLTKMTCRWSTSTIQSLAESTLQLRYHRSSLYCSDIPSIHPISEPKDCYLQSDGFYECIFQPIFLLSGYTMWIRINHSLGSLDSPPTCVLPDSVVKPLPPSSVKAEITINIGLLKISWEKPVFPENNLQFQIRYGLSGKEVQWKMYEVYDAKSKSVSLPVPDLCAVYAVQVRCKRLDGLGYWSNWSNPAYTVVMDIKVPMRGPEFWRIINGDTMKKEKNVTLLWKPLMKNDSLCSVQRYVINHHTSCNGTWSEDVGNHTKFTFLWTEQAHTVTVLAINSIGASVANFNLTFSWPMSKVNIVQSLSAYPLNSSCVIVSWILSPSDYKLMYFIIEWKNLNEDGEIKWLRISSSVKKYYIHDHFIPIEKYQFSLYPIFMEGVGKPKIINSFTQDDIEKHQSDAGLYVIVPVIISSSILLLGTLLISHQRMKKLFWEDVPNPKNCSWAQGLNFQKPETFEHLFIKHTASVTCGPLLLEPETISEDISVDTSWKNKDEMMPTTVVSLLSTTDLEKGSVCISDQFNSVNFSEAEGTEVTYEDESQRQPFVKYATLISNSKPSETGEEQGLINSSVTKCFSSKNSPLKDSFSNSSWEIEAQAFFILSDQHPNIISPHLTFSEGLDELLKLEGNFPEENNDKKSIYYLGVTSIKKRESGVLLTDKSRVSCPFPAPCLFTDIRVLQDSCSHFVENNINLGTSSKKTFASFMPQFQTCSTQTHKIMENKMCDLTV

[5] = molecular target: T1, extracellular domain of human LEPR, …; experiment: FACS, 200 nM antibody, HEK293/hLEPR-GPI cells, No Leptin
Procedure: as §1, §2

[6] = molecular target: T5, human LEPR extracellular domain expressed with a C-terminal myc-myc-hexahistidine tag (human, UniProt P48357 22-839); experiment: SPR (Biacore 4000), antibody captured by anti-human Fc, 25 C
T5 construct: Monomeric reagent; the entry named is the whole tagged construct; also called hLEPR-MMH; hLEPR.mmh

[7] = molecular target: T6, macaca fascicularis LEPR extracellular domain expressed with a C-terminal myc-myc-hexahistidine tag (Macaca fascicularis, UniProt Q9MYL0 22-837 (rhesus entry)); experiment: as above
T6 construct: Monomeric reagent; the entry named is the whole tagged construct; also called mfLEPR-MMH

B1: bsAb21236D (bispecific antibody, V domains shown)
VH 1: QVQLQESGPGLVKPSQTLSLTCTVSGGSISSGGDYWSWIRQLPGKGLEWIGYIYYSGSAYYNPSLKSRGTISIDTSKNQFSLKLTSVTAADTAVYFCVKLRFLEWFLGGWFGPWGQGTLVTVSS
VH 2: QVQLVESGGGLVKPGGSLRLSCAASGFTFSDYYMTWIRQTPGKGLDWVSYISSSGTNKYNADSVKGRFTISRDNAKNSLYLQMNSLRAEDTAVYYCVRDPPWGMDVWGQGTTVTVSS
VL: not shown
notes: LEPR x GP130 bispecific with common light chain; also called H4H21236D; bsAb21236 (LEPR × GP130)
- Binding Ratio: Normalized to Unstained Sample of Each Cell Line (FL4-A) [1]: 3600 ratio
- Binding Ratio: Normalized to Unstained Sample of Each Cell Line (FL4-A) [2]: 132 ratio
- EC50 (M), STAT3-luciferase activation of HEK293.STAT3.Luc.GP130.hLEPR (Y1141F) cells, 10 nM leptin [3]: 2.11e-09 M
- Percentage activation as compared to hOSM [3]: 25%
- Percentage activation as compared to hOSM [4]: 25%
- Binding Ratio: Normalized to Unstained Sample of Each Cell Line (FL4-A) [5]: 4420 ratio

B2: bsAb21237D (bispecific antibody, V domains shown)
VH 1: EVQLVESGGGLVQPGGSLRLSCAASGFTFSNYGMTWVRQAPGKGLEWVSAITGGGGSTYYSNSVKGRFTISRDNSKNTVYLRMNSVRAEDTAVYYCAKYKWNFVDDWGQGTTVTVSS
VH 2: B1 VH 2
VL: not shown
notes: LEPR x GP130 bispecific with common light chain; also called H4H21237D; bsAb21237 (LEPR × GP130)
- Binding Ratio: Normalized to Unstained Sample of Each Cell Line (FL4-A) [1]: 5930 ratio
- Binding Ratio: Normalized to Unstained Sample of Each Cell Line (FL4-A) [2]: 169 ratio
- EC50 (M), STAT3-luciferase activation of HEK293.STAT3.Luc.GP130.hLEPR (Y1141F) cells, 10 nM leptin [3]: 2.46e-09 M
- Percentage activation as compared to hOSM [3]: 20%
- Percentage activation as compared to hOSM [4]: 20%
- Binding Ratio: Normalized to Unstained Sample of Each Cell Line (FL4-A) [5]: 6320 ratio

B6: bsAb21237D (bispecific antibody, V domains shown)
VH 1: B2 VH 1
VH 2: B1 VH 2
VL: not shown
notes: LEPR x GP130 bispecific antibody; also called H4H21237D
- t½ [7]: 10 min
- t½ [6]: 10 min

Results, then the binder that gave them:

- 100 nM hLEPR-MMH Bound (RU) [6]: 8 RU
B3: bsAb21236D (bispecific antibody, V domains shown)
VH 1: B1 VH 1
VH 2: B1 VH 2
VL: not shown
notes: LEPR x GP130 bispecific antibody; also called H4H21236D

- Binding Ratio: Normalized to Unstained Sample of Each Cell Line (FL4-A) [2]: 235 ratio
- Binding Ratio: Normalized to Unstained Sample of Each Cell Line (FL4-A) [5]: 21 ratio
B4: mAb16683 (antibody, V domains shown)
VH: B1 VH 2
VL: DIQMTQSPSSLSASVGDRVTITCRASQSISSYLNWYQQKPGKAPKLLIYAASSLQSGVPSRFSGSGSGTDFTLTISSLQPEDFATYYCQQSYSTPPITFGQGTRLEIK
notes: Conventional anti-GP130 antibody; also called mAb16683 (anti-GP130 mAb)

- Binding Ratio: Normalized to Unstained Sample of Each Cell Line (FL4-A) [1]: 4250 ratio
- Binding Ratio: Normalized to Unstained Sample of Each Cell Line (FL4-A) [5]: 4710 ratio
B5: mAb18445 (antibody, V domains shown)
VH: B1 VH 1
VL: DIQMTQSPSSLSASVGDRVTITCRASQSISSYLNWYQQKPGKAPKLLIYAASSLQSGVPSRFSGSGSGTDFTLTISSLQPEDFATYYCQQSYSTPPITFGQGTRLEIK
notes: Conventional anti-LEPR antibody; also called mAB18445 (anti-LEPR mAb)

- Binding Ratio: Normalized to Unstained Sample of Each Cell Line (FL4-A) [1]: 6390 ratio
- Binding Ratio: Normalized to Unstained Sample of Each Cell Line (FL4-A) [5]: 7020 ratio
B7: mAb18446 (antibody, V domains shown)
VH: B2 VH 1
VL: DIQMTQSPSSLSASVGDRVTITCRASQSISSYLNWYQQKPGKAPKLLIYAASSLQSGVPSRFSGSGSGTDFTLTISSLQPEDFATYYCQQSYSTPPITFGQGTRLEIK
notes: Conventional anti-LEPR antibody; also called mAB18446 (anti-LEPR mAb)
